Among the data in PMC8455029 are stoichiometry N values, retold here.

Experiment [1] deals with AtFN3K C32A/C236A/C196A (Arabidopsis thaliana). Briefly: SEC.
The target is the same in experiment [2]. Briefly: AUC.

One may read the stoichiometry N as the number of molecules, sites or subunits per partner or assembly. Take AtFN3K C32A/C236A/C196A (enzyme): the stoichiometry N in experiment [1] and in experiment [2] was 2 throughout.
